Results on 167 variants are retold here after the Human Domainome abundance scans (Beltran et al. 2025).

First the molecules themselves.
B1: Pre-mRNA-processing factor 40 homolog B, residues 274 to 332; numbered along this chain, Q6NWY9 (parent)
chain: SNREKAKQAFKELLRDKAVPSNASWEQAMKMVVTDPRYSALPKLSEKKQAFNAYKAQRE

± gives the uncertainty stated by the source.

This data set covers variants of B1. The data set is described as follows: abundance fitness (aPCA) (normalised: wild type 0, dead -1); higher = more abundant; growth selection in yeast, the domain comes from the species named. The following applies: Homo sapiens.
For P36T, the abundance fitness is -0.293 ± 0.1. Under P36S stands -0.366 ± 0.075; under P36C, -0.381 ± 0.11.

As to P36M, the abundance fitness was -0.607 ± 0.1. Under P36A stands -0.19 ± 0.076; under P36E, -0.103 ± 0.086. Under P36F stands -0.307 ± 0.13. In the case of P36V, the abundance fitness is -0.353 ± 0.074.

On to P36L, for which the abundance fitness was -0.63 ± 0.07.

Take P36H: the abundance fitness was -0.445 ± 0.21.

Regarding P36D, the abundance fitness was -0.049 ± 0.1. Turning to P36R, the abundance fitness is -0.24 ± 0.064.

As to P36G, the abundance fitness was -0.391 ± 0.059. Under P36N stands -0.418 ± 0.17; under P36Y, -0.806 ± 0.13. Under S39Q stands -0.191 ± 0.16; under S39P, -0.527 ± 0.14; under S39A, -0.02 ± 0.068.

In the case of S39L, the abundance fitness was -0.342 ± 0.084. Under S39Y stands -0.247 ± 0.12. Under S39E stands 0.102 ± 0.11. As for S39N, the abundance fitness stood at 0.333 ± 0.17. For S39W, the abundance fitness was -0.278 ± 0.1. Under S39D stands -0.068 ± 0.11; under S39G, -0.071 ± 0.068; under S39M, -0.053 ± 0.19. Under S39H stands 0.098 ± 0.11; under S39R, 0.032 ± 0.061. Under S39K stands -0.228 ± 0.14; under S39C, -0.141 ± 0.094; under S39T, -0.099 ± 0.095.

For T34V, the abundance fitness is -0.419 ± 0.073.

For the variant T34L, the abundance fitness was -0.358 ± 0.066.

In the case of T34W, the abundance fitness was -0.544 ± 0.083. Under T34I stands -0.611 ± 0.11; under T34Q, -0.015 ± 0.1. Take T34M: the abundance fitness was -0.071 ± 0.089. Under T34R stands -0.257 ± 0.06.

As to T34N, the abundance fitness was found to be 0.232 ± 0.12. For T34G, the abundance fitness is 0.108 ± 0.059. Under T34A stands 0.028 ± 0.061; under T34P, -0.554 ± 0.11; under T34E, -0.039 ± 0.09. As for T34Y, the abundance fitness was -0.23 ± 0.11. As for T34F, the abundance fitness is -0.382 ± 0.15. Under T34H stands 0.043 ± 0.12; under T34S, 0.003 ± 0.068.

As to Q49F, the abundance fitness was -0.636 ± 0.16. Under Q49I stands -0.307 ± 0.18; under Q49L, -0.386 ± 0.086. As to Q49G, the abundance fitness is -0.343 ± 0.072. Under Q49E stands 0.294 ± 0.1; under Q49A, 0.112 ± 0.11. Under Q49C stands -0.239 ± 0.16; under Q49K, -0.066 ± 0.2; under Q49H, -0.407 ± 0.2. Under Q49N stands -0.481 ± 0.21; under Q49R, -0.116 ± 0.074. On to Q49D, for which the abundance fitness is 0.021 ± 0.18.

For Q49P, the abundance fitness was -0.574 ± 0.11. Regarding V32D, the abundance fitness was -0.347 ± 0.091. Turning to V32C, the abundance fitness is -0.113 ± 0.078. Under V32S stands -0.343 ± 0.075; under V32W, -0.732 ± 0.091; under V32H, -0.091 ± 0.13. Take V32I: the abundance fitness worked out at 0.178 ± 0.086. Under V32R stands -0.599 ± 0.064. Under V32F stands -0.619 ± 0.13; under V32E, -0.166 ± 0.09; under V32A, -0.489 ± 0.079. On to V32L, for which the abundance fitness is -0.182 ± 0.1. Under V32P stands -0.439 ± 0.11; under V32M, -0.175 ± 0.1; under V32Q, -0.428 ± 0.14. For the variant V32T, the abundance fitness was -0.094 ± 0.083.

On to V32G, for which the abundance fitness was -0.381 ± 0.055.

Consider V32Y, for which the abundance fitness is -0.583 ± 0.12.

With V32K, the abundance fitness was -0.171 ± 0.11. Under V32N stands -0.294 ± 0.14; under Y38A, -0.317 ± 0.067; under Y38N, -0.466 ± 0.13. Under Y38F stands -0.02 ± 0.12; under Y38W, -0.085 ± 0.07. Under Y38M stands -0.613 ± 0.096; under Y38D, -0.346 ± 0.11; under Y38R, -0.476 ± 0.054. With Y38C, the abundance fitness was -0.368 ± 0.11. Under Y38G stands -0.436 ± 0.059; under Y38H, -0.392 ± 0.13.

Consider Y38V, for which the abundance fitness is -0.38 ± 0.062. Under Y38S stands -0.293 ± 0.059; under Y38I, -0.548 ± 0.18. Under Y38P stands -0.423 ± 0.081.

Y38L: the abundance fitness was -0.546 ± 0.073. Under Y38Q stands -0.284 ± 0.1; under Y38K, -0.217 ± 0.1. Under Y38T stands -0.136 ± 0.077; under Y38E, -0.399 ± 0.08; under V33Y, -0.269 ± 0.2. Under V33K stands 0.169 ± 0.12; under V33D, 0.006 ± 0.13.

As for V33T, the abundance fitness is -0.042 ± 0.12.

As for V33P, the abundance fitness was -0.384 ± 0.12. Turning to V33L, the abundance fitness was -0.135 ± 0.067. Under V33W stands 0.012 ± 0.088; under V33G, 0.055 ± 0.054. Under V33F stands -0.228 ± 0.11. On to V33C, for which the abundance fitness was 0.137 ± 0.086. Under V33N stands 0.152 ± 0.16; under V33E, 0.169 ± 0.093.

As for V33Q, the abundance fitness stood at 0.053 ± 0.17. Under V33H stands 0.164 ± 0.14.

Consider V33S, for which the abundance fitness amounted to 0.198 ± 0.073. Under V33A stands 0.141 ± 0.074; under V33M, 0.171 ± 0.12. Under P42I stands -0.283 ± 0.16; under P42G, -0.156 ± 0.053.

On to P42C, for which the abundance fitness is -0.518 ± 0.1. Under P42K stands -0.13 ± 0.18; under P42F, -0.749 ± 0.21. For the variant P42M, the abundance fitness is -0.189 ± 0.11. Under P42E stands 0.018 ± 0.079; under P42A, -0.147 ± 0.07; under P42R, -0.326 ± 0.059. Under P42D stands -0.023 ± 0.1. Under P42Q stands -0.316 ± 0.14. With P42S, the abundance fitness was -0.131 ± 0.078.

As to P42V, the abundance fitness was -0.418 ± 0.071.

For P42L, the abundance fitness is -0.287 ± 0.086. Under P42T stands -0.093 ± 0.11; under P42H, -0.477 ± 0.22; under P42W, -0.602 ± 0.084. Take P42N: the abundance fitness was -0.628 ± 0.17.

For L44T, the abundance fitness is -0.337 ± 0.12. Under L44F stands -0.574 ± 0.31; under L44E, 0.137 ± 0.089; under L44P, -0.269 ± 0.084. Under L44K stands -0.289 ± 0.11; under L44Y, -0.809 ± 0.22; under L44Q, -0.219 ± 0.086. Under L44H stands -0.736 ± 0.17; under L44N, -0.448 ± 0.19. As for L44W, the abundance fitness is -0.561 ± 0.089.

Turning to L44V, the abundance fitness is -0.107 ± 0.077. Under L44S stands -0.175 ± 0.076.

For L44A, the abundance fitness was -0.12 ± 0.072.

Consider L44M, for which the abundance fitness was -0.087 ± 0.1. Under L44D stands -0.288 ± 0.13; under L44R, -0.36 ± 0.062. On to L44I, for which the abundance fitness was -0.101 ± 0.13.

With L41R, the abundance fitness was -0.552 ± 0.061. Under L41E stands -0.189 ± 0.084. Under L41M stands -0.176 ± 0.12; under L41P, -0.295 ± 0.077. Under L41D stands -0.439 ± 0.12.

As for L41C, the abundance fitness is -0.438 ± 0.14. Under L41W stands -0.486 ± 0.081; under L41Y, -0.34 ± 0.2.

On to L41A, for which the abundance fitness was -0.451 ± 0.065. Under L41I stands -0.268 ± 0.16; under L41K, -0.372 ± 0.095; under L41T, -0.214 ± 0.094.

Regarding L41H, the abundance fitness was -0.785 ± 0.23.

For the variant L41V, the abundance fitness is -0.16 ± 0.073. Under L41S stands -0.519 ± 0.065.

As to L41Q, the abundance fitness is -0.295 ± 0.12. Under L41N stands -0.443 ± 0.17.
